Measured values published in patent US10357539B2, “Use of peptides that block metadherin-SND1 interaction as treatment for cancer” (THE TRUSTEES OF PRINCETON UNIVERSITY, priority 2014, dated 2019).
Where no end group is shown, it is not given here.

Experiments:
[1] = target: T1, SND1 (Homo sapiens, UniProt Q7KZF4); assay: GST-mediated pull-down of SND1 by GST-tagged MTDH fragments and mutants; format: binding; conditions: His6-SND1ΔC (1-339); Coomassie blue staining
T1 construct: 15 μg of His-SND1 (16-339) was added to the resin; made in house; host or cells: E. coli DH5α
T1 sequence (Q7KZF4 1-339): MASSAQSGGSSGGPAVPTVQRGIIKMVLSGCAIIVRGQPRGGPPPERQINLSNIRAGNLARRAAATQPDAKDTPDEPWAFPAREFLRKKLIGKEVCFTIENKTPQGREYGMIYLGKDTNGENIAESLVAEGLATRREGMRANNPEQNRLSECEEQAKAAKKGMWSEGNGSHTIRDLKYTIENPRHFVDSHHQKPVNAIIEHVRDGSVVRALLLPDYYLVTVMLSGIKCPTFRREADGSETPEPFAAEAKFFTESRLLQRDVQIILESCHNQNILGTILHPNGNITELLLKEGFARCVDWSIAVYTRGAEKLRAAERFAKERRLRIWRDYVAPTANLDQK
Excerpt: FIGS. 7A-E represents determination of key regions and residues mediating the MTDH-SND1 interaction. (FIG. 7A) Schematics of MTDH fragments and mutants with indicated SND1-binding capability. + indicates binding and − indicates no binding based on results shown below. Two putative nuclear localization signals are residues 432-451 for NLS2 and residues 561-580 for NLS3. In the enlarged view of the minimal binding region 386-407, 9 residues were targeted for mutagenesis in the current study. […] (FIG. 7B) Pulldown of His6-SND1AC by GST-tagged MTDH fragments with indicated boundaries. The bound proteins were examined by SDS-PAGE and visualized by Coomassie blue staining. (FIG. 7C) Pulldown of His6-SND1ΔC by GST-tagged WT or triple mutant MTDH fragments (364-582). For (FIG. 7B) and (FIG. 7C), 1/10 of the His6-SND1ΔC input was shown, and GST alone was used as a negative control. Representative results of 3 independent experiments are shown. (FIG. 7D, FIG. 7E) Lysates from HEK293T cells expressing the indicated ectopic human SND1, AGO2 or MTDH were immunoprecipitated with anti-Myc and immunoblotted with the indicated antibodies.
(§1) (FIG. 22A) In vitro pull-down of SND1 (16-339) by GST-tagged MTDH (364-582) harboring WT or mutant sequence. The proteins bound to GS4B were examined on SDS-PAGE and visualized by Coomassie blue staining. (FIG. 22B) In vitro pull-down of WT and mutant SND1 (16-339) by GST-tagged MTDH (364-582). The bound proteins were examined as in (FIG. 22A). For both (FIG. 22A) and (FIG. 22B), experiments were repeated three times; representative results are shown. The normalized percentage of binding was averaged from three experiments; mean±SEM was shown below the data. (FIG. 22C) HEK293T cells were transfected with human HA-SND1, WT Myc-MTDH or Myc-MTDH with indicated single point mutation. Lysates were immunoprecipitated with anti-Myc antibody and immunoblotted with the indicated antibodies. (FIG. 22D) HEK293T cells were transfected with human Myc-MTDH, WT HA-SND1 or mutant HA-SND1 with indicated single point mutations or deletions. Lysates were immunoprecipitated with anti-Myc and immunoblotted with the indicated antibodies.
(§2) GST-Mediated Pull-Down Assay: ˜20 μg of GST-MTDH (different truncation forms and site mutants) was bound to 10 μl of glutathione resin via GST tag. The resin was washed with 200 μl assay buffer (25 mM Tris, PH8.0, 150 mM NaCl, 3 mM DTT) three times to remove the excess unbound protein. 15 μg of His-SND1 (16-339) was added to the resin in a 100 μl volume suspended in the assay buffer with 2 mg/ml of BSA. The mixture was washed with 200 μl assay buffer twice before examined by SDS-PAGE, and visualized by Coomassie blue staining. The experiments were repeated 3 times and the ratio of SND1 associated with GST-MTDH was analyzed by ImageJ.

[2] = target: T2, MTDH (364-582) (Homo sapiens, UniProt Q86UE4); assay: GST-mediated pull-down of SND1 constructs and mutants by GST-tagged MTDH (364-582); format: binding; conditions: SND1 mutants in SND1 (16-339)
T2 construct: made in house; host or cells: E. coli DH5α
T2 sequence (Q86UE4 364-582): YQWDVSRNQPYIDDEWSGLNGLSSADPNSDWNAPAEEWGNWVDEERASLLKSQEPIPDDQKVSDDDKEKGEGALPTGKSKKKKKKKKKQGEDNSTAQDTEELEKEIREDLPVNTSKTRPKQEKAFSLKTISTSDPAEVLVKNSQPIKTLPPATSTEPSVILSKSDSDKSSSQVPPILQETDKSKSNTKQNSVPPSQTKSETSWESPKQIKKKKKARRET
Excerpt: as §1, §2

[3] = target: T3, Myc-MTDH (Homo sapiens, UniProt Q86UE4, A78S/T317A); assay: Co-immunoprecipitation of HA-SND1 (WT or mutant) with Myc-MTDH in HEK293T cells; format: cell-based; conditions: HEK293T cell lysates
T3 construct: Full-length HA-tagged SND1 was co-expressed with full-length Myc-tagged wild-type (WT) or mutant MTDH in HEK293T cells; expressed in transfected cells; host or cells: HEK293T
T3 sequence (Q86UE4 1-582 A78S/T317A): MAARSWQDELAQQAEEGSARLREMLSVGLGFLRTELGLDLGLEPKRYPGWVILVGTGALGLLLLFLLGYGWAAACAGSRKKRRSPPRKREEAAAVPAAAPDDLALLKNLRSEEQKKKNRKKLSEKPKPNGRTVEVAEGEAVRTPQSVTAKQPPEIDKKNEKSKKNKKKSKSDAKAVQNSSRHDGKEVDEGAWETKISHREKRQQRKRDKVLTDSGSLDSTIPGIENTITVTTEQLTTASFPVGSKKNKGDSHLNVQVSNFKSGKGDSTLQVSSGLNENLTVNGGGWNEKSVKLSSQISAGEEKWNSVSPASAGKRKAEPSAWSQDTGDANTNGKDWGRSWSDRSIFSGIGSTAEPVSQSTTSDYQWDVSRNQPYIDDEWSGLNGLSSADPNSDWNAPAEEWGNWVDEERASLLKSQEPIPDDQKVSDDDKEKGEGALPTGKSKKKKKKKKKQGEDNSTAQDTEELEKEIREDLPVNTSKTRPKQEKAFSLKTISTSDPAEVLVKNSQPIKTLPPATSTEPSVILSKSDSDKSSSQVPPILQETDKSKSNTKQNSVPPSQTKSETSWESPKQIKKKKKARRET
Excerpt: as §1
Immunoprecipitation and western blot: For in vivo immunoprecipitation (IP) experiments, cultured cells were washed in cold PBS and lysed in lysis buffer (20 mM Tris pH 7.4, 0.15 M NaCl, 1 mM EDTA, 1 mM EGTA, 1% Tx-100, 0.0025 M Na2P2O7, 1 mM β-glycerolphosphate, 1 mM Na3VO4, and 1 mM NaF) with an EDTA-free protease inhibitor mixture (Roche Applied Science) and PMSF. Cell lysates were then incubated on ice for 10 min, centrifuged, and precleared by incubating with protein A/G beads (Santa Cruz Biotechnology) for 1 h at 4° C. For IP bead preparation, 30 μl of protein A/G beads were incubated with 5 μg of antibodies for 2 h at 4° C. IPs were carried out for overnight at 4° C., and beads were centrifuged, washed and subsequently boiled for 5 min in SDS protein loading buffer to elute bound protein. IP lysates were subjected to western blotting with indicated antibodies.

22 amino-acid fragment (residues 386-407): GST-tagged minimal SND1-binding fragment of MTDH, residues 386-407 (SSADPNSDWNAPAEEWGNWVDE; also: GST-tagged fragment (tag left off))
SND1-binding of MTDH fragments and triple mutants, in vitro [1]: sufficient for SND1-binding

B1: MTDH fragment 364-582: GST-tagged MTDH fragment, amino acids 364-582 of SEQ ID NO: 1 (protein, listed as Homo sapiens)
chain: YQWDVSRNQPYIDDEWSGLNGLSSADPNSDWNAPAEEWGNWVDEERASLLKSQEPIPDDQKVSDDDKEKGEGALPTGKSKKKKKKKKKQGEDNSTAQDTEELEKEIREDLPVNTSKTRPKQEKAFSLKTISTSDPAEVLVKNSQPIKTLPPATSTEPSVILSKSDSDKSSSQVPPILQETDKSKSNTKQNSVPPSQTKSETSWESPKQIKKKKKARRET
modifications: GST tag
SND1-binding of MTDH fragments and triple mutants, in vitro [1]: bound stoichiometrically

B2: TPM3: MTDH triple-point mutant W404D, D406R and E407R (protein)
chain: YQWDVSRNQPYIDDEWSGLNGLSSADPNSDWNAPAEEWGNDVRRERASLLKSQEPIPDDQKVSDDDKEKGEGALPTGKSKKKKKKKKKQGEDNSTAQDTEELEKEIREDLPVNTSKTRPKQEKAFSLKTISTSDPAEVLVKNSQPIKTLPPATSTEPSVILSKSDSDKSSSQVPPILQETDKSKSNTKQNSVPPSQTKSETSWESPKQIKKKKKARRET
modifications: left off: a dimerising Fc or GST
notes: MTDH triple-point mutant W404D, D406R and E407R
SND1-binding of MTDH fragments and triple mutants, in vitro [1]: bound SND1ΔC as effectively as the WT MTDH

B3: R316E: SND1 mutation located outside the interface, negative control (protein)
chain: VPTVQRGIIKMVLSGCAIIVRGQPRGGPPPERQINLSNIRAGNLARRAAATQPDAKDTPDEPWAFPAREFLRKKLIGKEVCFTIENKTPQGREYGMIYLGKDTNGENIAESLVAEGLATRREGMRANNPEQNRLSECEEQAKAAKKGMWSEGNGSHTIRDLKYTIENPRHFVDSHHQKPVNAIIEHVRDGSVVRALLLPDYYLVTVMLSGIKCPTFRREADGSETPEPFAAEAKFFTESRLLQRDVQIILESCHNQNILGTILHPNGNITELLLKEGFARCVDWSIAVYTRGAEKLRAAEEFAKERRLRIWRDYVAPTANLDQK
modifications: left off: small tags and cut ends
notes: SND1 mutation located outside the interface, negative control
MTDH-binding of SND1 domains and mutants, in vitro [2]: barely affected MTDH-binding | interaction of full-length HA-SND1 (WT or mutant) with Myc-MTDH [3]: bound readily with Myc-MTDH
